Data on two molecules can be found in patent publication US20080280833A1 (published 2008).

This assay has as its target αvβ3 integrin on rat smooth muscle cells (RSMC) (rat). Kind of assay: cell-based or functional assay.

For the molecule IQEGAAGRPKDDR [peptide D2A-Ala (D2A with the two glutamic acids of GEEG changed into alanines)], the “IC50 of inhibition of VN-induced migration of RSMC (Boyden chamber chemotaxis)” value was in the range of 0.01 to 0.02 pM.

IQEGEEGRPKDDR [peptide D2A, synthetic peptide of domain 2 of human uPAR (aa130-142)]: the “stimulation of RSMC migration (Boyden chamber chemotaxis)” value was determined as 3 fold.
